Literature values in article PMC9106955.

Target: GLP-1R N-terminal domain (UniProt P43220)
UniProt P43220, sequence (P43220 24-145): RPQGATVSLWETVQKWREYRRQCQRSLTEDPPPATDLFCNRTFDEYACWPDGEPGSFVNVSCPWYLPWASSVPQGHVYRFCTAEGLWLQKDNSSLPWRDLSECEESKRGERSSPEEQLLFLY

Question: Which Kd does the source give for Exendin-4 (from UniProt P26349) here?
Answer: Its Kd is 6 nM.
